In patent publication US5635597A (Affymax Technologies, N.V., priority 1994, dated 1997):
One block for each compound: values may come before it. Where a SMILES comes first, the peptide text is derived from it.

Legend:
IL-2Rα = biological target: T1, IL-2Rα (Homo sapiens, UniProt P01589); test: Phage screen of αβ heterodimer in presence of β-specific peptides: specific binding to IL-2Rα
T1 construct: was produced in recombinant host cells in a truncated form; made in house; host or cells: recombinant host cells (baculovirus system or PIG-tailed CHO cells named as options)
T1 sequence (P01589 22-240 limits assumed): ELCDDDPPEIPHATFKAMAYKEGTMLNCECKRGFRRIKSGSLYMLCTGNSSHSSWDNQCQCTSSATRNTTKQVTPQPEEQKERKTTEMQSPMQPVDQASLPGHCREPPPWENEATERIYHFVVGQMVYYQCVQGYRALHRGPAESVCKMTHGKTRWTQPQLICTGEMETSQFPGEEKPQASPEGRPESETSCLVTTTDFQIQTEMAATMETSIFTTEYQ
Procedure: (§1) After several rounds of affinity enrichment, the phage or plasmids and accompanying peptides were examined by ELISA to determine if the peptides bind specifically to the receptor. This assay was carried out in a manner similar to the procedures used in the affinity enrichment process, except that after removing unbound phage (or plasmids), the wells were typically treated with rabbit anti-phage antibody, then with alkaline phosphatase (AP)-conjugated goat anti-rabbit antibody, or with anti-LacI-AP, and then the amount of alkaline phosphatase in each well was determined by standard methods. By comparing test wells with control wells containing an unrelated receptor, one can determine whether a peptide binds to IL-2Rα (or IL-2Rβ, γ, αβ, or βγ) specifically. Peptides found to bind specifically to the receptor were then synthesized as the free peptide (no phage) and tested for binding against (1) immobilized soluble receptor, (2) receptor expressed on the surface of cells, (3) the heterotrimer form of the receptor (i.e., IL-2Rαβγ) expressed on the surface of cells and (4) the two heterodimers IL-2Rαβ and IL-2Rβγ.
The αβ heterodimer was screened in the presence of each of the following peptides, […] (SEQ ID NO:65), […] (SEQ ID NO:66), […] (SEQ ID NO:67), […] (SEQ ID NO:68) and […] (SEQ ID NO:69) under standard conditions. […]

immobilized IL-2Rα = biological target: T2, immobilized IL-2Rα (Homo sapiens, UniProt P01589); test: Blocking of IL-2 binding to immobilized IL-2Rα
T2 construct: was produced in recombinant host cells in a truncated form; made in house; host or cells: recombinant host cells (baculovirus system or PIG-tailed CHO cells named as options)
T2 sequence (P01589 22-240 limits assumed): T1 sequence (P01589 22-240 limits assumed)

immobilized IL-2Rβ = biological target: T3, immobilized IL-2Rβ (Homo sapiens, UniProt P14784); test: pVIII 12-mer phage screen against immobilized IL-2Rβ; assay type: binding; details: pVIII-bound 12-mers
T3 construct: was produced in recombinant host cells in a truncated form; made in house; host or cells: recombinant host cells (baculovirus system or PIG-tailed CHO cells named as options)
T3 sequence (P14784 27-240 limits assumed): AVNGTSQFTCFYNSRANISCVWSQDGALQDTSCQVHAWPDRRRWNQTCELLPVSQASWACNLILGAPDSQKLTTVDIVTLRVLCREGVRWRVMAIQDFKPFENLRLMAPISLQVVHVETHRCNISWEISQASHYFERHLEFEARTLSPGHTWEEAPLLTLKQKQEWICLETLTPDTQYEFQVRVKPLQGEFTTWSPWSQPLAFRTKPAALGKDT
Source text: (§2) In the systems employed, the random peptides were presented either on the surface of a phage particle, as part of a fusion protein comprising either the pIII or the pVIII coat protein of a phage fd derivative (peptides on phage), or as a fusion protein with LacI bound to a plasmid (peptides on plasmids). The phage or plasmids, including the DNA encoding the peptides, were identified and isolated by an affinity enrichment process using immobilized IL-2Rα, IL-2Rβ, IL-2Rγ and the αβ heterodimer. The affinity enrichment process, sometimes called "panning", involves multiple rounds of incubating the phage or plasmids with immobilized receptor, collecting the phage or plasmids that bind to the receptor (along with the accompanying DNA), and producing more of the phage or plasmids (along with accompanying LacI-peptide fusion protein) collected.
as §1

IL-2Rαβ heterodimer = biological target: T4, IL-2Rαβ heterodimer (Homo sapiens, UniProt P01589+P14784); test: pVIII 10-mer phage screen / ELISA against IL-2Rαβ heterodimer; assay type: binding; details: pVIII-bound 10-mers on phage
T4 construct: was produced in recombinant host cells in a truncated form; made in house; host or cells: recombinant host cells (baculovirus system or PIG-tailed CHO cells named as options)
T4 sequence (P01589 22-240 limits assumed): T1 sequence (P01589 22-240 limits assumed)
T4 sequence (P14784 27-240 limits assumed): T3 sequence (P14784 27-240 limits assumed)
Source text: as §2, §1
The immobilized receptor used in the affinity enrichment and ELISA procedures was produced in recombinant host cells in a truncated form. This truncated receptor molecule can be produced in a variety of different forms and host cells. One useful form of receptor is constructed by expressing the protein as a soluble protein in baculovirus transformed host cells using standard methods; another useful form is constructed with a signal peptide for protein secretion and for glycophospholipid membrane anchor attachment. This form of anchor attachment is called "PIG-tailing;"see Caras and Weddell, 3 Mar. 1989, Science 243:1196-1198, and Lin et al., 10 Aug. 1990, Science 249:677-679, each of which is incorporated herein by reference. Using the PIG-tailing system, one can cleave the receptor from the surface of the cells expressing receptor (e.g., transformed Chinese hamster ovary (CHO) cells selected for high level expression of receptor with a cell sorter) with phospholipase C. The cleaved receptor still comprises a carboxy terminal sequence of amino acids, called the "HPAP tail", from the signal for membrane attachment and can be immobilized without further purification.
The recombinant receptor protein was immobilized by coating the wells of microtiter plates with an anti-HPAP tail antibody, blocking with bovine serum albumin (BSA) in PBS, and then binding recombinant, truncated receptor to the antibody. Using this procedure, one should perform the immobilization reaction in varying concentrations of the receptor to determine the optimum amount for a given preparation, because different preparations of recombinant protein often contain different amounts of the desired protein. […] Otherwise, unblocked antibody can bind undesired phage during the affinity enrichment procedure. […]

IL-2Rβ = biological target: T5, IL-2Rβ (Homo sapiens, UniProt P14784); test: Colony lift procedure with tagged IL-2 receptors; assay type: binding
T5 construct: tag (kind not specified; detected enzymatically or on X-ray film)
T5 sequence (P14784 27-240 limits assumed): T3 sequence (P14784 27-240 limits assumed)
Source text: Peptides specific for the IL-2Rα, β and γ subunits were also discovered using a "colony lift" procedure, wherein cells were infected with DNA encoding for random amino acid sequences as described above. The phage was then allowed to grow on arabinose media to induce expression of the encoded peptides. […] The filters were washed and dried, and the tagged colonies were detected enzymatically, or by exposure to X-ray film, to identify those receptors which bound to the immobilized peptide-expressing phage particles.
Sequences which bound to IL-2Rβ have the general sequence RDCSX81AX82 LGELC, wherein X81 is V, E or D; and X82 is V or A. Preferred sequences are […], […] (SEQ ID NO: ), and […] (SEQ ID NO: ).

α subunit = biological target: T6, α subunit (Homo sapiens, UniProt P01589); test: Phage ELISA competition against phage-bearing […]; assay type: binding; details: phage ELISA format against phage-bearing FVRCTASGCV
T6 construct: was produced in recombinant host cells in a truncated form; made in house; host or cells: recombinant host cells (baculovirus system or PIG-tailed CHO cells named as options)
T6 sequence (P01589 22-240 limits assumed): T1 sequence (P01589 22-240 limits assumed)
Source text: (§3) After several rounds of affinity enrichment, the phage or plasmids and accompanying peptides were examined by ELISA to determine if the peptides bind specifically to the receptor. […] By comparing test wells with control wells containing an unrelated receptor, one can determine whether a peptide binds to IL-2Rα (or IL-2Rβ, γ, αβ, or βγ) specifically.

[1] = biological target: T7, immobilized IL-2Rγ monomer (Homo sapiens, UniProt P31785); test: Phage ELISA against immobilized IL-2Rγ monomer; assay type: binding; details: high receptor density
T7 construct: was produced in recombinant host cells in a truncated form; made in house; host or cells: recombinant host cells (not fixed)
T7 sequence (P31785 23-262 limits assumed): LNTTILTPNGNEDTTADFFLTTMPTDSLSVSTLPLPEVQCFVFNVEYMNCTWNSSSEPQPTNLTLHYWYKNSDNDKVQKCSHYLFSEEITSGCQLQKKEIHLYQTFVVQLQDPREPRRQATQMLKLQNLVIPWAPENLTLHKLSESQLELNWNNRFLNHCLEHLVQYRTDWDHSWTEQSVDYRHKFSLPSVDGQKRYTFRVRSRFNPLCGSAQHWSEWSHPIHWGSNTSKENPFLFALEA
Procedure: as §1
(§4) Random pVIII 10-mer and 11-mer libraries were also screened against immobilized IL-2Rγ monomer in a phage ELISA assay at high receptor density. […] These peptides also bound to the βγ-subunit and competed with radiolabelled ligand.

βγ-subunit [2] = biological target: T8, βγ-subunit (Homo sapiens, UniProt P14784+P31785); test: Binding to βγ-subunit and competition with radiolabelled ligand
T8 construct: was produced in recombinant host cells in a truncated form; made in house; host or cells: recombinant host cells (not fixed)
T8 sequence (P14784 27-240 limits assumed): T3 sequence (P14784 27-240 limits assumed)
T8 sequence (P31785 23-262 limits assumed): T7 sequence (P31785 23-262 limits assumed)
Source text: as §4

βγ-subunit [3] = biological target: T8, βγ-subunit; test: Phage-ELISA competition with phage bearing peptides, βγ-subunit; assay type: binding; details: phage-ELISA assay
Source text: as §3
Random pVIII 10-mer and 11-mer libraries were also screened against immobilized IL-2Rγ monomer in a phage ELISA assay at high receptor density.

αβ [4] = biological target: T9, αβ (Homo sapiens, UniProt P01589+P14784); test: Competition against phage-borne […], αβ heterodimer; assay type: binding; details: free peptide
T9 construct: was produced in recombinant host cells in a truncated form; made in house; host or cells: recombinant host cells (baculovirus system or PIG-tailed CHO cells named as options)
T9 sequence (P01589 22-240 limits assumed): T1 sequence (P01589 22-240 limits assumed)
T9 sequence (P14784 27-240 limits assumed): T3 sequence (P14784 27-240 limits assumed)

βγ [5] = biological target: T10, βγ (Homo sapiens, UniProt P14784+P31785); test: Competition against phage-borne […], βγ heterodimer; assay type: binding; details: free peptide
T10 construct: was produced in recombinant host cells in a truncated form; made in house; host or cells: recombinant host cells (not fixed)
T10 sequence (P14784 27-240 limits assumed): T3 sequence (P14784 27-240 limits assumed)
T10 sequence (P31785 23-262 limits assumed): T7 sequence (P31785 23-262 limits assumed)

βγ [6] = biological target: T10, βγ; test: Binding to βγ subunits
Procedure: as §1

αβ [7] = biological target: T9, αβ; test: Binding to αβ subunits
Procedure: as §1

β-subunit = biological target: T11, β-subunit (Homo sapiens, UniProt P14784); test: Blocking of IL-2 binding to the β-subunit
T11 construct: was produced in recombinant host cells in a truncated form; made in house; host or cells: recombinant host cells (baculovirus system or PIG-tailed CHO cells named as options)
T11 sequence (P14784 27-240 limits assumed): T3 sequence (P14784 27-240 limits assumed)

Compound: EVICGTDGCW
- specific binding to IL-2Rα (IL-2Rα): bound specifically
- concentration at which IL-2 binding to immobilized IL-2Rα was blocked (immobilized IL-2Rα): 330 µM

Compound: ARSDYGLGAIWP
- subunit specificity of clones (immobilized IL-2Rβ): β-specific

Compound: RYGEVGDLLP
- binding to the αβ heterodimer (IL-2Rαβ heterodimer): bound
- subunit specificity (IL-2Rαβ heterodimer): specific for the β subunit

Compound: RDCSVAVLGELC
- binding to IL-2Rβ (IL-2Rβ): bound

Compound: WDGPGLGEFF
- binding to the αβ heterodimer (IL-2Rαβ heterodimer): bound
- subunit specificity (IL-2Rαβ heterodimer): specific for the β subunit

Compound: RDCSEARLGELC
- binding to IL-2Rβ (IL-2Rβ): bound

Compound: CGTQEACFGLL
- specific binding to IL-2Rγ [1]: bind to that subunit specifically
- binding to the βγ-subunit (βγ-subunit [2]): bound
- competition with radiolabelled ligand (βγ-subunit [2]; βγ-subunit): competed
- competition with phage bearing peptides in binding to the βγ-subunit (βγ-subunit [3]): compete

Compound: RDCSDAVLEGLC
- binding to IL-2Rβ (IL-2Rβ): bound

Compound: ARYGDVGSLV
- binding to the αβ heterodimer (IL-2Rαβ heterodimer): bound
- subunit specificity (IL-2Rαβ heterodimer): specific for the β subunit

Compound: SGCGRELDWC
- binding to the αβ heterodimer (IL-2Rαβ heterodimer): bound
- subunit specificity (IL-2Rαβ heterodimer): specific for the β subunit

The next lines start with the values.

- subunit specificity of clones (immobilized IL-2Rβ): β-specific
Compound: RACRVMPCLPDL

- binding to the αβ heterodimer (IL-2Rαβ heterodimer): bound
- subunit specificity (IL-2Rαβ heterodimer): specific for the β subunit
Compound: RWGDVGDMVV

- competition for binding with respect to the α subunit (α subunit): compete for binding
Compound: FVRCTASGCV

- specific binding to IL-2Rα (IL-2Rα): bound specifically
- concentration at which IL-2 binding to immobilized IL-2Rα was blocked (immobilized IL-2Rα): 110 µM
Compound: SVRCSASGCV

- competition against phage-born MDCSEAVLGELC for binding (αβ [4]): competitive
- competition against phage-born MDCSEAVLGELC for binding (βγ [5]): competitive
- binding to βγ subunits (βγ [6]): able to bind
- binding to αβ subunits (αβ [7]): able to bind
- blocking IL-2 binding to the β-subunit (β-subunit): capable of blocking IL-2 binding
- subunit specificity of clones (immobilized IL-2Rβ): β-specific
Compound: CSCC[C@H](N)C(=O)N[C@@H](CC(=O)O)C(=O)N[C@@H](CS)C(=O)N[C@@H](CO)C(=O)N[C@@H](CCC(=O)O)C(=O)N[C@@H](C)C(=O)N[C@H](C(=O)N[C@@H](CC(C)C)C(=O)NCC(=O)N[C@@H](CCC(=O)O)C(=O)N[C@@H](CC(C)C)C(=O)N[C@@H](CS)C(=O)O)C(C)C (H-MDCSEAVLGELC-OH; N-terminus and C-terminus assumed)

- subunit specificity of clones (immobilized IL-2Rβ): β-specific
Compound: HCLDMGCTFPVW
